The text below walks through data of patent US20210155689A1 (SHANGHAI PHARMAEXPLORER, published 2021).

For assay [1], the target named is T1, monkey LAG-3 (full length, on the cell surface) (monkey, UniProt P18627 24-525 (human entry)).
T1 construct: also called HEK293-cLAG-3; monkey LAG-3 protein on the cell surface
T1 chain: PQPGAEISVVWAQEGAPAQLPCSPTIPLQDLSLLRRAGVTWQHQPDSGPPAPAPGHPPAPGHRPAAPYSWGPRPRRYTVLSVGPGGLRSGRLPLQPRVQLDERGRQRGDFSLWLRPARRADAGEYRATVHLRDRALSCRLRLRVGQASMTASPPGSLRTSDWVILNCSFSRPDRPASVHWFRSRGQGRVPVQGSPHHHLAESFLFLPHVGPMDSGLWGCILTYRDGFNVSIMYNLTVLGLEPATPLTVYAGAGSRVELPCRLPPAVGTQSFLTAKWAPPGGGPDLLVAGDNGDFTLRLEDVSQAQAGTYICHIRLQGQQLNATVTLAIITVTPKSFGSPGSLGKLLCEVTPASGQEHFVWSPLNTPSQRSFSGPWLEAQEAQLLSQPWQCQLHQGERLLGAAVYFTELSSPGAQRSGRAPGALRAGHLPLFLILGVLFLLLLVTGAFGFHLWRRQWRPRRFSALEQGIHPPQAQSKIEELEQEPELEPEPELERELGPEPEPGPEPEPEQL
Briefly: FACS, HEK293-cLAG-3; 8.000 nM. An excerpt:
(§1) The pIRES plasmid with the monkey-derived full-length gene was transfected into the HEK293 cell line to construct a HEK293 stable cell line containing monkey LAG-3 (herein referred to as HEK293-cLAG-3 stable cell line). The HEK293-hLAG-3 stable cell line and HEK293-cLAG-3 stable cell line were expanded in a T-75 cell culture flask to a 90% confluence. The medium was aspirated, and the cells were washed with HBSS (Hanks' Balanced Salt Solution) 1-2 times, then treated with a enzyme-free cell dissociation fluid (Versene solution: Life technology) and the cells were collected. The cells were washed with HBSS buffer for 1-2 times. After counted, the cells were diluted with HBSS to 1-2×10⁶ cells per ml, added with 1% goat serum blocking solution, incubated on ice for 20-30 minutes, and then washed with HBSS for 2 times by centrifugation. The collected cells were suspended in the FACS buffer (HBSS+1% BSA) to 2×10⁶ cells/ml, added as 100 microliters per well to a 96-well FACS reaction plate, added with 100 microliters per well of the antibody sample to be tested, incubated on ice for 1-2 hours. The plate was washed twice with the FACS buffer by centrifugation, added with 100 microliters of fluorescent (Alexa 488)-labeled secondary antibodies per well, and incubated on ice for 0.5-1.0 hours. The plate was washed 2-3 times with FACS buffer by centrifugation, added with 100 μl fixative solution (4% Paraformaldehyde) per well to suspend the cells. 5-10 minutes later, it was washed 1-2 times with FACS buffer by centrifugation. The cells were suspended with 100 microliters of FACS buffer, FACS (FACSCalibur, BD) was used for detection and the results were analyzed.
Background: Flow cytometry measures light scatter and fluorescence of single cells or particles in a stream.

For assay [2], the target named is T2, human LAG-3 (full length, on the cell surface) (human, UniProt P18627 23-525).
T2 construct: Full-length human LAG-3 expressed on cells; also called HEK293-hLAG-3; HEK293 cells transfected with LAG-3 gene
T2 sequence: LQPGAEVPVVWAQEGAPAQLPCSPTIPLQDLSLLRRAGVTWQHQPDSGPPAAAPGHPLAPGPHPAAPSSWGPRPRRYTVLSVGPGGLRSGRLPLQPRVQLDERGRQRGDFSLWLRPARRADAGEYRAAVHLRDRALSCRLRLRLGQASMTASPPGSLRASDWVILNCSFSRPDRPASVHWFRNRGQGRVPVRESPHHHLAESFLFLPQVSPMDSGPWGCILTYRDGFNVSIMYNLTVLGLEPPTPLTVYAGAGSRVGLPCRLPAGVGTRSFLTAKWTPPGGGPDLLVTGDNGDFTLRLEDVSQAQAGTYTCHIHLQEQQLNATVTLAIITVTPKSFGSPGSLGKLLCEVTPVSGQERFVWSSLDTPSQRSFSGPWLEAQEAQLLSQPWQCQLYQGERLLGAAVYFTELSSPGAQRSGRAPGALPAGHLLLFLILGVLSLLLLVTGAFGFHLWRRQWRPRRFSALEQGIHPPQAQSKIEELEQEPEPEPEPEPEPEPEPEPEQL
Briefly: FACS, HEK293-hLAG-3; 0.013 nM.
From the text: as §1

Assay [3] addresses T3, mouse LAG-3 protein with hFc tag (mLAG-3-hFc protein) (mouse; human, UniProt Q61790 24-442).
T3 construct: Made in HEK293 cells; also called mouse LAG-3 extracellular domain protein; not shown: human IgG Fc fragment (hFc) of the pCpC vector
T3 sequence: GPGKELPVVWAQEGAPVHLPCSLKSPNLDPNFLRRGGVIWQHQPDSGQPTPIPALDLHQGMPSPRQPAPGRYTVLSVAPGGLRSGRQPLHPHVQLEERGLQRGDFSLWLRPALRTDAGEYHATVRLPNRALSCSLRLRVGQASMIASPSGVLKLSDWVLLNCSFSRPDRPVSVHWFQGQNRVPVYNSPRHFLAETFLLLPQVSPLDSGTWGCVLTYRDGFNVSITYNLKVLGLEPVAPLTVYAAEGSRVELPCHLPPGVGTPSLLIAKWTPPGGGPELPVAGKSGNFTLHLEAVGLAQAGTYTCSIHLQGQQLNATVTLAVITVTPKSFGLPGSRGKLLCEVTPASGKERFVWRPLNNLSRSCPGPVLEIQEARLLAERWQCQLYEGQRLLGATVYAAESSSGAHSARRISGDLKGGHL
Briefly: ELISA, mLAG-3-hFc coated; 6.6667 nM. As for the experimental part:
The plate was sealed with plastic film and incubated overnight at 4° C. The plate was washed 2 times with the plate washing solution (PBS+0.01% Tween20) on the next day, and added with the blocking solution (PBS+0.01% Tween20+1% BSA) and blocked at room temperature for 1-2 hours. The blocking solution was poured out, and the plate was added with 50-100 μl of the antibody sample to be tested to each well, incubated at 37° C. for 1-2 hours, and washed 2-3 times with a plate washing solution (PBS+0.01% Tween20). HRP (horseradish peroxidase) labeled secondary antibody was added, and the plate was incubated at 37° C. for 1-2 hours, and washed 2-3 times with a plate washing solution (PBS+0.01% Tween20). 100 μl of TMB substrate was added to each well. After incubated at room temperature for 15-30 minutes, the plate was added with 100 μl of stop solution (1.0N HCl) to each well.
On the technique in general: ELISA stands for enzyme-linked immunosorbent assay.

Numbering of substitutions follows the chain as printed.

B1: 405B8H3 (mouse antibody purified from hybridoma) (antibody, V domains shown)
VH: QVQLQQSGAELVRPGASVTLSCKASGYTFTDYEMHWVKQTPVHGLEWIGATDPETGNSAYNQKFKGKAIMTADKSSSTAYMELRSLTSEDSAVYYCISTGWNDWGQGTSLTVSS
VL: DIKMTQSPSSMYASLGERVTITCKASQDINSYLSWFQQKPGKSPKTLIYRADRLLDGVPSRFSGSGSGQDYSLTISSLEYGDMGIYYCLQYDEFPYTFGGGTKLEIK
notes: also called mAb103-405B8H3; 405B81-13
With B1, the results for the Mean fluorescence intensity in assay [1] and in assay [2] were 61.4 MFI and 5 MFI, respectively.

B2: 405B8H3 (LAG-3 mouse-human chimeric antibody) (antibody, V domains shown)
VH: B1 VH
VL: B1 VL
notes: also called mouse-human chimeric antibody 405B8H3
B2: the OD450 in assay [3] turned out to be 0.34 OD450.

B3: 105F1E10 (LAG-3 mouse-human chimeric antibody) (antibody, V domains shown)
VH: EVQLQQSGPELVKPGASVKMSCRASGYTFTDFKMHWMKQSHGKSLEWIGYIAPNNGGTAYNQKFRGKATLTVNESSNTAYMELRSLTSEDSAVYYCVDWDDVDYWGQGTTLTVSS
VL: B1 VL with P40S, D52N, L55V, G81E, D92V, Y96L, G100A, I106L
Take B3: the OD450 in assay [3] was 0.14 OD450.

B4: 105F1E10 (mouse antibody purified from hybridoma) (antibody, V domains shown)
VH: B3 VH
VL: B1 VL with P40S, D52N, L55V, G81E, D92V, Y96L, G100A, I106L
notes: also called mAb009-105F1E10
Take B4: the figures for the Mean fluorescence intensity in assay [1] and in assay [2] were 44.6 MFI and 5 MFI, respectively.

B5: 409D4E10 (LAG-3 mouse-human chimeric antibody) (antibody, V domains shown)
VH: B1 VH with Y27N, G56D, S58T, M70L, A72T, S98T, T99S
VL: B1 VL with D52N, G81E, D92N
With B5, in assay [3], the OD450 worked out at 0.23 OD450.

B6: 409B11E12 (mouse antibody purified from hybridoma) (antibody, V domains shown)
VH: B1 VH with P41T, G56S, N57Y, M70L, S98A
VL: B1 VL with I2L, D52N, G81E
notes: also called mAb104-409B11E12
Regarding B6, the Mean fluorescence intensity in assay [1] worked out at 69.9 MFI; in assay [2], 2.9 MFI.

B7: 409D4E10 (mouse antibody purified from hybridoma) (antibody, V domains shown)
VH: B1 VH with Y27N, G56D, S58T, M70L, A72T, S98T, T99S
VL: B1 VL with D52N, G81E, D92N
notes: also called mAb112-409D4E10
On to B7, for which the Mean fluorescence intensity stood at 93.8 MFI in assay [1] and 3.3 MFI in assay [2].

B8: 409B11E12 (LAG-3 mouse-human chimeric antibody) (antibody, V domains shown)
VH: B1 VH with P41T, G56S, N57Y, M70L, S98A
VL: B1 VL with I2L, D52N, G81E
In turn, B8 yielded an OD450 in assay [3] of 0.31 OD450.

B9: 556F6B8 (mouse antibody purified from hybridoma) (antibody, V domains shown)
VH: RVQLKQSGPGLVQPSQSLSITCTVSGFSLIKYGVHWVRQSPGEGLEWLGVIWRGGITDYNAAFMSRLSITKDNSKSQVFFKMNSLQADDTAIYYCAKWDGPLAMDYWGQGTSVTVSS
VL: DIVMTQSHKFLSTSVGDRVSITCKASQDVGTTVAWYQQKPGQSPKLLIYWASTRHTGVPDRFTGSGSGTDFTLTISNVQSEDLADYFCQQYSSYPYTFGGGTKLEIK
notes: also called mAb123-556F6B8
As to B9, the Mean fluorescence intensity is 46.7 MFI in assay [1] and 3.6 MFI in assay [2].

B10: 556F6B8 (LAG-3 mouse-human chimeric antibody) (antibody, V domains shown)
VH: B9 VH
VL: B9 VL
notes: also called 556F8B8
B10 yielded an OD450 in assay [3] of 0.36 OD450.
